The values below come from the RNAGym collection of RNA variant scans (doi:10.7554/elife.80360).

B1: Hairpin Ribozyme (parent)
chain: GUCCUCUUUCACGUGCGCGUGAAAGAGAGAAGUGAACCAGAGAAACACACGUUGUGGUAUAUUACCUGGUA

The variants in this series derive from B1. The series can be described thus: self-cleavage, relative activity (ratio to wild type); higher = more cleavage; co-transcriptional.
Consider G25C A47U, for which the self-cleavage turned out to be 0.0432.
In the case of A26G U70A it was 1.06; in that of A26G U70G, 0.81; in that of G25C G69A, 0.149.
As to G25C G51A, the self-cleavage amounted to 0.591.
Take A26C A64U: the self-cleavage was determined as 0.158.
For A26C A64G, the self-cleavage amounted to 0.539.
Regarding A26U C46G, the self-cleavage is 0.317.
As for A26U G40C, the self-cleavage stood at 0.0803.
In the case of G25U A43G it was 0.183.
Regarding G25U A43U, the self-cleavage stood at 0.217.
As for A26G G27C, the self-cleavage is 0.215.
Turning to A26U C37G, the self-cleavage was determined as 0.185.
Turning to A26U C37A, the self-cleavage was found to be 0.243.
In the case of G27A C50U, the self-cleavage amounted to 0.124.
Take A26U: the self-cleavage is 0.683.
The result for A26C reads 0.708; that for A26G, 0.901; that for A26G U63G, 0.183.
Regarding G27C A61U, the self-cleavage amounted to 0.119.
In the case of G25C G68A it was 0.192.
The result for A26U A36C reads 0.343; that for A26U A36U, 0.414; that for A26G C50G, 0.211.
G25U G32C: the self-cleavage amounted to 0.187.
Turning to G25U G32U, the self-cleavage was 0.0897.
In the case of A26C A41C, the self-cleavage is 0.734.
G25C A28C: the self-cleavage stood at 0.214.
G27A A31G: the self-cleavage worked out at 0.221.
As for G27A A31U, the self-cleavage amounted to 0.153.
Take A26C C46G: the self-cleavage amounted to 0.106.
Regarding G25C C65A, the self-cleavage was 0.382.
For the variant G25C C65G, the self-cleavage stood at 0.174.
Take G25U A59U: the self-cleavage is 0.237.
A26G G56C: the self-cleavage worked out at 0.14.
The result for A26G G56U reads 0.151; that for A26C C65A, 0.614.
Regarding A26C C65U, the self-cleavage came to 0.256.
On to A26U U67C, for which the self-cleavage stood at 0.176.
Turning to G25U G54C, the self-cleavage stood at 0.241.
In the case of A26C C48A it was 0.045.
For A26C C48U, the self-cleavage was found to be 0.173.
Turning to A26C C37G, the self-cleavage came out at 0.373.
A26C C37A: the self-cleavage came to 0.156.
A26G A39U: the self-cleavage amounted to 0.407.
The result for A26G U33A reads 0.135.
For the variant G27C U53A, the self-cleavage was 0.19.
Take G27C U53G: the self-cleavage was 0.169.
For A26G G54A, the self-cleavage was 0.605.
For the variant A26C A71G, the self-cleavage was 1.01.
In the case of A26U A64C it was 0.15.
A26C G29C: the self-cleavage amounted to 0.136.
In the case of A26C G29U it was 0.109; in that of A26C G29A, 0.149.
In the case of A26G A59U, the self-cleavage came to 0.233.
As for G27A C37G, the self-cleavage is 0.15.
The result for G27C A39G reads 0.0932; that for A26C G34C, 1.47.
For G25C U53C, the self-cleavage came out at 0.417.
In the case of G25U U62C, the self-cleavage turned out to be 0.123.
A26U G69A: the self-cleavage turned out to be 0.203.
In the case of G27A A30C it was 0.141.
For the variant G27A A30G, the self-cleavage came out at 0.0562.
As for A26U G51A, the self-cleavage stood at 0.661.
On to A26U G51U, for which the self-cleavage stood at 0.614.
As to A26U G51C, the self-cleavage was determined as 0.447.
The result for G27A A28U reads 0.393; that for G27A G32C, 0.226; that for G27A G32A, 0.0917.
In the case of G25U U60G, the self-cleavage turned out to be 0.288.
On to G25U U60C, for which the self-cleavage is 0.885.
In the case of G25U A71G, the self-cleavage came to 0.654.
As to A26U A28C, the self-cleavage is 0.155.
Regarding A26U A28U, the self-cleavage worked out at 0.257.
As to G25U A41G, the self-cleavage was found to be 0.611.
For G25U A41C, the self-cleavage was determined as 0.953.
As for G27A C66A, the self-cleavage amounted to 0.204.
As for G27C G42A, the self-cleavage is 0.148.
Turning to G27C G42C, the self-cleavage was found to be 0.165.
On to G25C A61U, for which the self-cleavage was 0.213.
Regarding G25U G68U, the self-cleavage amounted to 0.159.
Turning to G25U G68C, the self-cleavage came to 0.243.
Take G25A U58C: the self-cleavage worked out at 0.581.
In the case of A26U C48G, the self-cleavage is 0.117.
For A26U G27C, the self-cleavage was determined as 0.177.
In the case of A26G A49C it was 0.148; in that of A26G A49U, 0.288.
As to G27A U62A, the self-cleavage worked out at 0.155.
On to A26G A45C, for which the self-cleavage amounted to 0.135.
With G25U C46U, the self-cleavage came to 0.157.
As for G25U C46A, the self-cleavage was determined as 0.205.
The result for A26C U70G reads 0.509; that for G27C G54A, 0.133; that for G27C C65U, 0.159.
In the case of G27A G68U it was 0.184; in that of G27A G68C, 0.215.
As for G27C G40U, the self-cleavage came to 0.0774.
On to G25C C46U, for which the self-cleavage stood at 0.0896.
For G25C G32U, the self-cleavage was found to be 0.0809.
Turning to G25C G32A, the self-cleavage came out at 0.0816.
For the variant A26C U63G, the self-cleavage is 0.0806.
For the variant A26U A59G, the self-cleavage was 0.181.
On to A26C A45U, for which the self-cleavage came out at 0.182.
The result for A26C A45G reads 0.136; that for G25C G56A, 0.149.
Take A26G G68A: the self-cleavage is 0.309.
The result for G25U A49U reads 0.136; that for A26G U55G, 0.153; that for A26G U55C, 0.206.
Take G27A A43U: the self-cleavage was 0.052.
As to G27A A71G, the self-cleavage came out at 0.545.
In the case of A26U A45G it was 0.168.
Regarding A26U A45U, the self-cleavage turned out to be 0.245.
Consider G27C G32U, for which the self-cleavage stood at 0.15.
For A26C A47C, the self-cleavage is 0.199.
As for A26G C65A, the self-cleavage was 0.702.
The result for G25U C37A reads 0.261; that for G25C A45U, 0.205; that for G25C A45C, 0.123.
On to G25C A45G, for which the self-cleavage was found to be 0.0878.
On to G25U U55G, for which the self-cleavage was found to be 0.195.
On to G25U U55A, for which the self-cleavage was 0.216.
Consider G25U C50A, for which the self-cleavage came out at 0.283.
Consider G27A U58A, for which the self-cleavage worked out at 0.176.
As to G25A U33A, the self-cleavage was 0.235.
The result for G25A U33C reads 0.0884.
The result for G27C A71C reads 0.53; that for G25U U58G, 0.439; that for G27C C38A, 0.116.
In the case of G25C U62G, the self-cleavage was 0.0816.
Regarding G25C U62C, the self-cleavage is 0.252.
Regarding G25A G68A, the self-cleavage was 0.164.
With G25A G68U, the self-cleavage stood at 0.152.
On to A26G A41U, for which the self-cleavage was found to be 1.24.
As to A26G A41G, the self-cleavage came to 1.13.
For G27C G56C, the self-cleavage is 0.134.
In the case of G25U G51U it was 0.671; in that of G25U G51A, 0.613; in that of A26U U53G, 0.489.
The result for A26U U52G reads 0.442.
Take A26C A59U: the self-cleavage came out at 0.245.
As to G27C C46G, the self-cleavage was 0.152.
For the variant G27C C46A, the self-cleavage came out at 0.0983.
With G27A A39C, the self-cleavage was 0.2.
The result for G25U A44U reads 0.113; that for G25U A44G, 0.165; that for G25U A44C, 0.229.
As to G25C A26G, the self-cleavage came out at 0.254.
Consider A26U C38U, for which the self-cleavage worked out at 0.409.
Turning to A26U C38G, the self-cleavage worked out at 0.109.
As to A26U A39G, the self-cleavage was found to be 0.207.
Consider A26U A39C, for which the self-cleavage stood at 0.225.
Turning to G25U U67A, the self-cleavage worked out at 0.145.
In the case of A26U C50U, the self-cleavage worked out at 0.261.
As to G25C A31U, the self-cleavage stood at 0.143.
As for G25C A31C, the self-cleavage worked out at 0.168.
In the case of A26U U33C it was 0.141; in that of A26U U33A, 0.148; in that of A26G C38A, 0.131.
As for A26G U52G, the self-cleavage was found to be 0.721.
For the variant A26G U52C, the self-cleavage turned out to be 0.822.
As for G25U, the self-cleavage was determined as 0.65.
On to G25C, for which the self-cleavage came out at 0.563.
As for A26C G32U, the self-cleavage worked out at 0.196.
In the case of G27A C38U, the self-cleavage is 0.2.
On to A26C U60A, for which the self-cleavage worked out at 0.659.
In the case of G25A U63G, the self-cleavage was found to be 0.173.
